Laboratory results published in publication PMC6628147.
pKd: −log10 of the molar value. Several values for one entry are separate records, joined by “and”; a condition that tells them apart may be missing. Identical values can stand only once.

Legend:
Assay in all cases: EMSA
Conditions in all cases: EMSA: 1 nM 6-FAM DNA, 0-1.28 uM protein, 1 h at 37 C, binding buffer not stated; 6% PAGE in 40 mM Tris pH 7.6, 20 mM acetic acid, 1 mM EDTA at 4 C (effectors …)
[1] = test system: BenM-DBDCatM(F293Y,H160R)-His (Acinetobacter baylyi ADP1)
[2] = test system: CatM(I18F,K38N)-His (Acinetobacter baylyi ADP1)
[3] = test system: CatM-His (Acinetobacter baylyi ADP1)
[4] = test system: BenM-DBDCatM-His (Acinetobacter baylyi ADP1)

Substance | Kd [1] | Kd [2] | Kd [3] | pKd [1] | Kd [4]
PbenA operator-promoter | 1 nM and 4 nM (2×) and 2 nM | 42 nM and 32 nM (2×) and 34 nM | 70 nM and 71 nM (2×) and 67 nM |  | 
PcatB operator-promoter |  |  | 11 nM and 19 nM (2×) and 10 nM | 8.52 | 1 nM and 3 nM (2×) and 4 nM
